Positions count from the first letter of the chain named.
B1: 7-intron_WT (ssRNA)
RNA: GUUCAGUUUUGUUGGAUUGUUUUGCUGAUCUG
B2: 8-UTR_WT (ssRNA)
RNA: GUUUUUGGUUUAGAUUUGGUUUUGUGU
B3: 8-UTR_938 (ssRNA)
RNA: CGUUUGGUUUACUUUUUUGAUGAAACA
B4: 8-intron_WT (ssRNA)
RNA: CUUCCACGAUUGUUUUUGCUGAUGUGU
B5: 7-UTR_WT (ssRNA)
RNA: AUUUUGUUCUGGUUCUGCUUUAGAUUUGAUCU
B6: 7-intron_G6mut (ssRNA)
RNA: GUUCAAUUUUAUUAAAUUAUUUUACUGAUCUG

Tests used:
GST-AtGRP8 (WT) [1] = molecular target: T1, GST-AtGRP8 (WT) (Arabidopsis thaliana, UniProt Q03251 1-169); assay: EMSA
T1 sequence: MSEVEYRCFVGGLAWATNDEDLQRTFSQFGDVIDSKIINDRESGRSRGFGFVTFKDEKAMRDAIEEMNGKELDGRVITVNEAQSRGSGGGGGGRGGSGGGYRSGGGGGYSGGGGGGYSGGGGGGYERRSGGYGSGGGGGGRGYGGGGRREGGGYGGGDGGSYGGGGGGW

GST-AtGRP8-RQ = molecular target: T2, GST-AtGRP8-RQ (Arabidopsis thaliana, UniProt Q03251 1-169, R47Q); assay: EMSA
T2 sequence: T1 sequence with R47Q

GST-AtGRP8 (WT) [2] = molecular target: T1, GST-AtGRP8 (WT); assay: EMSA; remark: listed apart in the source
GST-AtGRP8 (WT) [3] = molecular target: T1, GST-AtGRP8 (WT); assay: competition

| Binder | Kd (GST-AtGRP8 (WT) [1]) | Kd (GST-AtGRP8-RQ) | binding signal (GST-AtGRP8 (WT) [2]) | binding result (GST-AtGRP8 (WT) [3]) |
| --- | --- | --- | --- | --- |
| B1 | 426 nM | 3590 nM |  |  |
| B2 | 205 nM | 1310 nM |  |  |
| B3 |  |  | ~10 fold lower affinity than 8-UTR_WT |  |
| B4 | 1640 nM | 22900 nM |  |  |
| B5 | 318 nM | 3220 nM |  |  |
| B6 |  |  |  | no binding |

From publication PMC2602770
